From patent US7273618B2, “Method for administering agents to the central nervous system” (Chiron Corporation, priority 1998, dated 2007)

What was measured:
Assay type in all cases: in vivo, Sprague-Dawley rats
Conditions in all cases: rat, 7.4 nmol
[1] = Sublingual administration of 125I-IGF-I, tissue distribution by gamma counting
Description: Male Sprague-Dawley rats, 200-310 grams, were anesthetized with intraperitoneal pentobarbital (40 mg/kg). Drug delivery to the brain and spinal cord was assessed after sublingual administration of 7.4 nmol of ^125I-IGF-I in phosphate buffered saline, pH 7.4. Rats were placed in on their bellies with posterior elevated and mouth lowered. ^125I-IGF-I (7.4 nmol) on a small strip of filter paper was placed under the tongue. Such methods for sublingual administration are known in the art. Purushotham et al. Am J. Physiol. 269,G867-G873 (1995). Rats subsequently underwent perfusion-fixation within minutes following the completion of ^125I-IGF-I administration. Perfusion-fixation was performed with 50-100 ml physiologic saline followed by 500 ml of fixative containing 1.25% glutaraldehyde and 1% paraformaldehyde in 0.1 M Sorenson's phosphate buffer, pH 7.4, prior to dissection and ^125I measurement by gamma counting. Areas dissected included selected brain regions as well as the cervical, thoracic and sacral regions of the spinal cord.

[2] = Transdermal administration (skin of the face) of 125I-IGF-I, tissue distribution by gamma counting
Description: Male Sprague-Dawley rats, 200-310 grams, are anesthetized with intraperitoneal pentobarbital (40 mg/kg). Drug delivery to the brain and spinal cord was assessed after transdermal administration of 7.4 nmol of ^125I-IGF-I in phosphate buffered saline, pH 7.4. Rats are placed in on their bellies with posterior elevated and mouth lowered. ^125I-IGF-I (7.4 nmol) placed on the skin of the rat's face. Rats subsequently underwent perfusion-fixation within minutes following the completion of ^125I-IGF-I administration. Perfusion-fixation was performed with 50-100 ml physiologic saline followed by 500 ml of fixative containing 1.25% glutaraldehyde and 1% paraformaldehyde in 0.1 M Sorenson's phosphate buffer, pH 7.4, prior to dissection and ^125I measurement by gamma counting. Areas dissected included selected brain regions as well as the cervical, thoracic and sacral regions of the spinal cord.

[3] = Conjunctival administration (lower eyelid) of 125I-IGF-I, tissue distribution by gamma counting

Q: What does the source list for “125I-IGF-I: insulin-like growth factor I, a single chain peptide having 70 amino acids and a molecular weight of about 7,600 daltons, radioiodinated”?
A: concentration in meninges or dura surrounding olfactory bulb, dorsal and ventral regions of the brain, trigeminal nerve and upper cervical spinal cord [1]: High concentrations; concentration in the trigeminal nerve itself [1]: high concentrations; presence in the olfactory bulb, spinal cord and brain stem [1]: found; concentration of neurologic agent in spinal cord regions (comparison) ([1]; cervical, thoracic, lumbar or sacral regions): higher in the cervical region of the spinal cord than in the thoracic region and higher in the thoracic region than in the lumbar or sacral regions; appearance of neurologic agent in the brain and spinal cord (radioactivity) ([1]; perfusion-fixation within minutes after administration): Rapid appearance; appearance of neurologic agent in the brain and spinal cord (radioactivity) [2]: Rapid appearance; appearance of neurologic agent in the brain and spinal cord (radioactivity) [3]: Rapid appearance
